Source: patent US20190185546A1

Assays:
[1] = molecular target: HSV-1 (Herpes Simplex Virus type 1; antigen recognised not identified) (Herpes simplex virus 1); assay: cell-based or functional assay
[2] = molecular target: HSV-2 (Herpes Simplex Virus type 2; antigen recognised not identified) (Herpes simplex virus 2); assay: cell-based or functional assay

IC50 (neutralization, IIF infection foci count, InCellAnalyzer) [1]: 0.7 mg/L
IC50 (neutralization, IIF infection foci count, InCellAnalyzer) [2]: 0.2 mg/L
B1: Fab Ex2 (IgG1 Fab format) (Fab, V domains shown)
VH: LESGGGVVQPGRSLRLSCAASGFTFTTFAMHWVRQAPGKGLEWLAFISYDGSNKYYADSVKGRFTISRDNSKNTLYLQMNSLRAEDTSIYYCAREVWNYADYWGQGALVTVSS
VL: ELTQSPGTLSSSPGHRATLSCKASAPLGSNHMAWYQQKPGQAPRLLIYGASTRATGVPARFTGSGSGTDFTLTISSLQPEDFATYYCQQANSFPRTFGQGTKVEIK
